One molecule from patent US20230280353A1, “DETECTION SYSTEM OF INTERACTION BETWEEN KNOWN MOLECULES AND PROTEINS BASED ON COVALENT CONNECTION AND IDENTIFICATION OR VERIFICATION METHOD THEREOF” (SHANGHAI JIAO TONG UNIVERSITY, priority 2021, published 2023) can be followed below.

The procedure of series [1]:
The SA-Pup purified from Step 1 was added into Buffer R (50 mM Tris, PH 7.5, 100 mM NaCl, 20 mM MgCl2, 10% (v/v) glycerol) and high salt buffers (50 mM Tris-HCl, PH 8.0, 8 M urea, 15 mM DTT, 1 mM EDTA, PH 8.0) containing 8 M urea, respectively. After mixing, the supernatant was absorbed, and then biotin agarose beads were added to rotate and incubate at room temperature for 1 hour, and then the supernatant was absorbed. The supernatant was detected by SDS-PAGE.

Series [2] is described as follows: Biotin binding activity of SAm-Pup^E (SDS-PAGE). The settings on record: incubated with biotin at room temperature 1 hour. As to the method:
The SAm-Pup^E protein and wild-type streptavidin (SA) purified in step 1 were mixed with biotin (A600078) and incubated at room temperature for 1 hour, and then detected by SDS-PAGE.

B1: SAm-Pup^E: mutated streptavidin-Pup tetramer, amino acid sequence SEQ ID NO: 5 (protein)
chain: MGAEAGITGTWYNQLGSTFIVTAGADGALTGTYESAVGNAESRYVLTGRYDSAPATDGSGTALGWTVAWRNNYRNAHSATTWSGQYVGGAEARINTQWLLTSGTTEANAWRSTLVGHDTFTRVRPSAASGGGGGSGSHHWGGGGSLTEETDDLLDEIDDVLEENAEDFVRAYVQRGGE
modifications: tetramer; The sequence is synthesized.
B1: the “stability of binding to biotin agarose beads” value in series [1] is listed as “can still bind stably in high salt buffer”. In series [2], the biotin-binding activity entry is reported as “the same biotin-binding activity as wild-type streptavidin”.
